The experiment deals with human PAC1 receptor (human), P41586. The experiment in a line: cell-based or functional assay.

Our source for the cAMP (fmol) values is patent US20220251162A1.

Where no end group is shown, it is not given here.

Sequence of human PAC1 receptor (human), P41586 (P41586 21-468): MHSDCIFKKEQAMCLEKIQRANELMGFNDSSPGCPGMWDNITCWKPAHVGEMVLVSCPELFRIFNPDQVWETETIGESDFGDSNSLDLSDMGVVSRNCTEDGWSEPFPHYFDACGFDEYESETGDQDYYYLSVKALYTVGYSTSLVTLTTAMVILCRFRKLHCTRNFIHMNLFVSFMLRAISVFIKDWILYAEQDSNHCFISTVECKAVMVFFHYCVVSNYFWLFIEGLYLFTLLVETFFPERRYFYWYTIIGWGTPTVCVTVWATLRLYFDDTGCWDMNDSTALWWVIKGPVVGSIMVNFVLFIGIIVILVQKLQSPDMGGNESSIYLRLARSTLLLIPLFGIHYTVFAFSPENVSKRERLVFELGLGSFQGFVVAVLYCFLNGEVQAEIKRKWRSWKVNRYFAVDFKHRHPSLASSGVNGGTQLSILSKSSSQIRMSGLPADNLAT

B1: MAXCAP 1 (peptide)
peptide: HSDGIFTDSYSSRYRKQMAVKKYLAAVLPGNSVFKECMKQKKKEFKAGK
modifications: ends and bridges not checked
In turn, B1 showed a cAMP (fmol) at 1 nM of 3170 fmol, a cAMP (fmol) at 10 nM of 6220 fmol and a cAMP (fmol) at 100 nM of 4710 fmol.

B2: MAXCAP 4 (peptide)
peptide: HSDGIFAPGNSVFKECMKQKKKEFKAGK
modifications: ends and bridges not checked
In turn, B2 yielded a cAMP (fmol) at 10 nM of 4060 fmol, a cAMP (fmol) at 100 nM of 6400 fmol, a cAMP (fmol) at 1 µM of 6400 fmol and a cAMP (fmol) at 10 µM of 5780 fmol.
